The values below are quoted from earlier work in paper PMC4860950.

One may read the Kd as the free concentration of one partner at which half of the binding sites on the other are occupied at equilibrium, for simple one-to-one binding.

Targets include CD2 (Homo sapiens) (UniProt P06729); CD244 (Homo sapiens) (UniProt Q9BZW8); CD2 (Mus musculus) (UniProt P08920).
Sequence of UniProt P08920 (P08920 23-203): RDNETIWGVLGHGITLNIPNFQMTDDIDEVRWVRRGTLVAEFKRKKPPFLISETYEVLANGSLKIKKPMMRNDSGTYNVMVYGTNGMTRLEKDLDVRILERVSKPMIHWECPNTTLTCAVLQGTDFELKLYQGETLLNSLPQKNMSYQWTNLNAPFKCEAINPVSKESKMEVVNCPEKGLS
Sequence of UniProt P06729 (P06729 25-209): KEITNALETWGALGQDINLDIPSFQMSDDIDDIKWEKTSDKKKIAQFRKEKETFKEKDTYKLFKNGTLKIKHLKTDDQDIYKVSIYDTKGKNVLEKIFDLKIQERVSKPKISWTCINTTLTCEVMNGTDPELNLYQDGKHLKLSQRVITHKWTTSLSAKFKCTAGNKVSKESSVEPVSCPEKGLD
Sequence of UniProt Q9BZW8 (Q9BZW8 22-229): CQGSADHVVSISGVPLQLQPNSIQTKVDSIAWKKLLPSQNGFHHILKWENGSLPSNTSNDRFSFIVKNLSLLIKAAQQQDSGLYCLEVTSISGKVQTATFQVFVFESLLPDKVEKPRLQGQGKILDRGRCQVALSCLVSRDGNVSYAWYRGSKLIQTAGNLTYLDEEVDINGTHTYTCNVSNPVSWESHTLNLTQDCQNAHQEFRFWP

Turning to CD48 (from UniProt P09326), the Kd in the series with CD2 (Homo sapiens) is 100 µM; in the series with CD244 (Homo sapiens) it was 8 µM. Regarding CD48 (from UniProt P18181), in the series with CD2 (Mus musculus), the Kd was 90 µM.
